According to the supplement of paper PMC12764529:

Assay: folding stability dG unfold (combined trypsin and chymotrypsin); higher = more stable
Protocol: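 Folding stability of de novo designed mini-proteins (<80 aa, no Cys; designed by TrROS, TrMRF, ProteinMPNN and the joint model) was measured by cDNA display proteolysis with trypsin and chymotrypsin. Each protease was used at 11 concentrations in a threefold dilution series plus a no-protease condition. K50 was inferred by Bayesian fitting of sequencing counts, and dG unfold was derived against a sequence-predicted unfolded-state K50 (Tsuboyama et al. method). Sequences shown include variable-length N-terminal GS-type padding (SAGGSAGG...) inside a display construct carrying a PA tag. Rows were kept only if the AF2 dimer inter-PAE was >15, to exclude likely homo-oligomers.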

Folding stability dG unfold, < -1 kcal/mol:
SAGGSAGGSAGGPEPIPVKISMWNPNGKPMGTFEFPIETPEDLDEFAREDGMPFRVEPESAGGSAGGSAGGS [r10_958_TrROS]
SAGGSAGGSAGGPETRVVYEPLPDGTSKIVEVEAAEDYVTVPVPFPNGGEAVFTVKPGELSAGGSAGGSAGG [r7_829_TrMRF]
SAGGSAGGSAGGPEWKEVPFTLRMPDGEPMDAKVYIDPEGPLEIENDDKWHTFPADQLKSAGGSAGGSAGGS [r10_649_TrROS]
SAGGSAGGSAGGPTVKVKKVELAPETGYAVVHFEVELEGEPKVVEGELVLPLPPPLDAPSAGGSAGGSAGGS [r10_541_TrMRF]
SAGGSAGGSAGGSGLKELREEAAKGKKFIVRTTVPLKEYEFDLKDLDKFEDHDIIVEPRSAGGSAGGSAGGS [r4_157_TrMRF]
SAGGSAGGSAGGSLALVRFPGDDRLFSVPVPEDLEAELVLPTPDGRPVGVRLFRVRDPRESAGGSAGGSAGG [r7_19_TrMRF]
SAGGSAGGSAGGSLNISVSSEPLPGDLLVEKGEFPSPKTLTTLVEPGTGVVTTTTEAASSAGGSAGGSAGGS [r10_237_JUSTAS]
SAGGSAGGSAGGSMITTEEFTDKEEAVEKAKKTPGVEKVEVKTTPSDKYVVIIYKPPLKSAGGSAGGSAGGS [r4_1_JUSTAS]
SAGGSAGGSAGGSMPTATLVEKEKDPVEDIITYKINTPPDKTEIIKYSPENPISESDIISAGGSAGGSAGGS [r4_481_JUSTAS]
SAGGSAGGSAGGSMSWDDRPPVISTSVVKLPIEPGTVVKEGSKTYVAKPDGTVTVIDPRSAGGSAGGSAGGS [r4_394_JUSTAS]
SAGGSAGGSAGGSMTPITTTEEVDPDFKEETIKVKNFPATTTPIPEENKRTTTIPTSLFSAGGSAGGSAGGS [r4_430_JUSTAS]
SAGGSAGGSAGGSPELVPVSTEVVELETESVLELEESKVEVKERLEIVVKRLTKEGLGLESAGGSAGGSAGG [r7_485_JUSTAS]
SAGGSAGGSAGGSPPIRIRFPNNGKTIPIDGPDDLKDYLRDNGLPIDPDDLDKIDEVEWSAGGSAGGSAGGS [r4_104_TrROS]
SAGGSAGGSAGGSPVYTLERTLPDGRPVRIEISGDEATITLESPEGGERTEKVSRSEILESAGGSAGGSAGG [r7_653_JUSTAS]
SAGGSAGGSAGGSRIHIEPDNNNYRIKNRNPGGKKEEFPFDSLEDLKDLPPGFPVEIYDSAGGSAGGSAGGS [r4_447_TrROS]
SAGGSAGGSAGGSSKLVTITRGNSKTLLTLKPDEPVLLPGSDSSVSVNEGSAVNISGNKLSAGGSAGGSAGG [r7_853_JUSTAS]
SAGGSAGGSAGGSSTVLETEVTPTSEPRLLTKTLIEEFPPDNPEKPVLSVKETVLPVLLSAGGSAGGSAGGS [r4_265_JUSTAS]
SAGGSAGGSAGGSTKSINFKNPSNIRDALREAQDEGVKPVVIYFPDGKTRKIPPGDPITSAGGSAGGSAGGS [r4_260_TrROS]
SAGGSAGGSAGGSTVLRLERVPGTGLLVERLVTPSGSGYSVEVTVRPVGEEEREALPLGSAGGSAGGSAGGS [r10_291_JUSTAS]
SAGGSAGGSAGGTIEGLPKEQLRDIFKDHGMPPDEFPPGQPVQFNIPNKNPIKVRVTDLSAGGSAGGSAGGS [r10_623_TrROS]
SAGGSAGGSAGGWLKGMPFKITKITDVRRNPENGRRWLTIRMPNPNRPVTVPLDDLPPGLSAGGSAGGSAGG [r7_304_TrROS]
SAGGSAGGSAGGYRIKIKMPNGRPREIPLEPDDPEEVKEQAKELSSRGYDVTKVEVEPPSAGGSAGGSAGGS [r10_231_TrROS]
SAGGSAGGSAGITITQNPDGPVRIMWKHPNGKPVNEGDIKPDEAEKFADKNGMRPVSIEPSAGGSAGGSAGG [r11_521_TrROS]
SAGGSAGGSAGKIEVETNPENNYMRVKITNPGNGKKIKIPVPNGNPSDARDKAKELILEFSAGGSAGGSAGG [r17_386_TrROS]
SAGGSAGGSAGKRIIINMPAEQAIDWAREMLPPNQPIEIFNPDHGKTREFPIPPPSPDEKSAGGSAGGSAGG [r11_163_TrROS]
SAGGSAGGSAGKTISLKELMKNGNPEKALEFLKKIKEANPKPKIKLIEIDENFDAKYDINSAGGSAGGSAGG [r11_365_TrMRF]
SAGGSAGGSAGLEIPPELTVTSTFTVPPSGRRVLELLNPATNEPVVLDLETGEIHPSEALSAGGSAGGSAGG [r11_268_JUSTAS]
SAGGSAGGSAGLLPPGARVRLTLRAPGEPEELEFTIPASVPSVEELIERHPPVLAVEVVGSAGGSAGGSAGG [r11_157_JUSTAS]
SAGGSAGGSAGMEEIKERYRKELEAEGRPVKEIKAEKLPPTNTIVVTLDFENKPIVIPLPSAGGSAGGSAGG [r11_279_JUSTAS]
SAGGSAGGSAGMKLEELAKEAEERYREEGGDAVIDLVVEREDDKKEPFILEIGKKGLKIESAGGSAGGSAGG [r11_954_TrMRF]
SAGGSAGGSAGMKTFTAPSGEKLVEVTIKTKNKEISVTVPPEEGGEAVAKKYGVSKKDIASAGGSAGGSAGG [r11_1039_JUSTAS]
SAGGSAGGSAGMPVIEEKLVFYTGDGTPREKKVKVTTTPLPNGTTKKTYDIPKDEIKKLPSAGGSAGGSAGG [r11_816_JUSTAS]
SAGGSAGGSAGMTPEEAEKEAAEKIKNELIAKGYPEAKVEVKSPVKVDEVNNTFTLDIDIKKSAGGSAGGSA [r18_517_JUSTAS]
SAGGSAGGSAGMTVEVKKLSTPRYEKIITITTETTVKDPNSAKPLTTETVTTIERDEVSLSAGGSAGGSAGG [r17_124_JUSTAS]
SAGGSAGGSAGMVETTSEEEAAAVIAEARAAGVPVTLVLKNPDGTTVTTPVEVVVPPDAPSAGGSAGGSAGG [r17_462_JUSTAS]
SAGGSAGGSAGMVRIKITHNNGRKNTFKIPPNITEVKEVEIKLPPELQDNITKVEIEPLDSAGGSAGGSAGG [r17_528_TrROS]
SAGGSAGGSAGNVITFPDGYYIRVTGPGPREIPIPPENAEDFVDEISKLPGIQDIEIQPRSAGGSAGGSAGG [r11_587_TrROS]
SAGGSAGGSAGPRVTLTPDPNSDYVLVTTYPGDGSSTTSNVPVSELEKVRKELPADFTLASAGGSAGGSAGG [r11_569_JUSTAS]
SAGGSAGGSAGPWKVITHTIDIPPGADELPIRLPGNGIEAKIMSVDPGNGTITVEIYVPDSAGGSAGGSAGG [r17_198_TrROS]
SAGGSAGGSAGSEELAKEIEDIAQEQGFPIKDVEIERNPPNGYYSIEVRHKGNPVTIPIPSAGGSAGGSAGG [r11_279_TrROS]
SAGGSAGGSAGSNKVSPVITLEEDPDGTVTRTVTLKINTPEGKTLTTTSTDPLSPDSALKRSAGGSAGGSAG [r3_180_JUSTAS]
SAGGSAGGSAGSTEIGVYKLEGTDKVLVLAKKPNGSEVPVEFPASVTPEEAVEKAKKVVSSAGGSAGGSAGG [r17_161_TrMRF]
SAGGSAGGSAGSVAEALADKTITVTSPSSSTPYTATITPGADDTLRVGSPGSSGTDISVARLSAGGSAGGSA [r18_169_JUSTAS]
SAGGSAGGSAGTLDELKNAPPGEERTVRVDFQIYEMRPDPNGKPEMEPVSPMRMEITFKPSAGGSAGGSAGG [r11_36_TrROS]
SAGGSAGGSAGTVTEKTSIPDPNSDNSLTVTKTPNSITMTNPKTGDVIISNNSTVTKIKKSAGGSAGGSAGG [r17_544_JUSTAS]
SAGGSAGGSAGTVVVITPKNGEKFVFEAESSELPKIKEAFPELKIKDIDPGKGFIHVEVDSAGGSAGGSAGG [r17_22_TrMRF]
SAGGSAGGSAGVDFFKAPDGSEYAVVVARGKDADIPVLTRVDDGNDALAERFGLPKEKIGSAGGSAGGSAGG [r11_1039_TrMRF]
SAGGSAGGSAGVKEIADKFPGIKSIDVQRNKNGEQTVSIEHRSKGGPVKHTFPAEDLEPLSAGGSAGGSAGG [r17_116_TrROS]
SAGGSAGGSAGVPPDAPEVVVTLTLRPPGPDTTVTLTVPAAELPPEAIPPGTVVERAVSPGASAGGSAGGSA [r18_21_JUSTAS]
SAGGSAGGSAGWEMLRMIKENAKPGKPTTITIHPNFPMEEINKELIEDAPIDDVEYTPMPSAGGSAGGSAGG [r11_524_TrROS]
SAGGSAGGSAGWFYRIEIPHPNGRKRTHYVPDPEEAEDELKEEFGIPPENVKIEPIPPNDSAGGSAGGSAGG [r17_169_TrROS]
SAGGSAGGSAGWKISVRMPDNGKPRRVPIEIPFDADDPQYFKEIANDLANDGIREVEIYPSAGGSAGGSAGG [r11_196_TrROS]
SAGGSAGGSAGWRVRVSFPNGNKIEIDEIPPDDEGMTPDQLADEIQKEFPGNGIEVEPVPSAGGSAGGSAGG [r17_42_TrROS]
